Reference: PMC9106297, “Structure of a TRAPPII-Rab11 activation intermediate reveals GTPase substrate selection mechanisms” (Science Advances, 2022)

Assays:
Assay in all cases: cryo-EM structure; TRAPPII purified from yeast, incubated with tenfold molar excess of Rab11/Ypt32-7xHis and calf intestine alkaline phosphatase at 4°C overnight (nucleotide-free Rab), complex purified on Calmodulin Sepharose and by SEC; 10 mM tris (pH 8.0), 150 mM NaCl, 0.1% CHAPS, 1 mM Mg acetate, 1 mM dithiothreitol; single-particle cryo-EM
Details in all cases: both partners purified
[1] = target: T1, Bet3 (TRAPP core subunit, in purified TRAPPII) (S. cerevisiae, UniProt P36149 1-193)
T1 construct: Bet3, S. cerevisiae, endogenous; source: endogenous, purified from S. cerevisiae as a subunit of TRAPPII
T1 sequence (looked up): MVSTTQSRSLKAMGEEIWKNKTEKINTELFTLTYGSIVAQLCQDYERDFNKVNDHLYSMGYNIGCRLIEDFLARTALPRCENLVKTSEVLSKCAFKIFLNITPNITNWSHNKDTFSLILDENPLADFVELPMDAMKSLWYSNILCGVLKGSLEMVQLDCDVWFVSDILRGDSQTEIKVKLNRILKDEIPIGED

[2] = target: T2, Trs130 (TRAPPII-specific subunit, in purified TRAPPII) (S. cerevisiae, UniProt Q03660 1-1102)
T2 construct: Trs130, S. cerevisiae, endogenous copy tagged at the C terminus; source: endogenous, purified from S. cerevisiae as a subunit of TRAPPII; not shown: held on Calmodulin Sepharose), C-terminal, kept
T2 sequence (looked up): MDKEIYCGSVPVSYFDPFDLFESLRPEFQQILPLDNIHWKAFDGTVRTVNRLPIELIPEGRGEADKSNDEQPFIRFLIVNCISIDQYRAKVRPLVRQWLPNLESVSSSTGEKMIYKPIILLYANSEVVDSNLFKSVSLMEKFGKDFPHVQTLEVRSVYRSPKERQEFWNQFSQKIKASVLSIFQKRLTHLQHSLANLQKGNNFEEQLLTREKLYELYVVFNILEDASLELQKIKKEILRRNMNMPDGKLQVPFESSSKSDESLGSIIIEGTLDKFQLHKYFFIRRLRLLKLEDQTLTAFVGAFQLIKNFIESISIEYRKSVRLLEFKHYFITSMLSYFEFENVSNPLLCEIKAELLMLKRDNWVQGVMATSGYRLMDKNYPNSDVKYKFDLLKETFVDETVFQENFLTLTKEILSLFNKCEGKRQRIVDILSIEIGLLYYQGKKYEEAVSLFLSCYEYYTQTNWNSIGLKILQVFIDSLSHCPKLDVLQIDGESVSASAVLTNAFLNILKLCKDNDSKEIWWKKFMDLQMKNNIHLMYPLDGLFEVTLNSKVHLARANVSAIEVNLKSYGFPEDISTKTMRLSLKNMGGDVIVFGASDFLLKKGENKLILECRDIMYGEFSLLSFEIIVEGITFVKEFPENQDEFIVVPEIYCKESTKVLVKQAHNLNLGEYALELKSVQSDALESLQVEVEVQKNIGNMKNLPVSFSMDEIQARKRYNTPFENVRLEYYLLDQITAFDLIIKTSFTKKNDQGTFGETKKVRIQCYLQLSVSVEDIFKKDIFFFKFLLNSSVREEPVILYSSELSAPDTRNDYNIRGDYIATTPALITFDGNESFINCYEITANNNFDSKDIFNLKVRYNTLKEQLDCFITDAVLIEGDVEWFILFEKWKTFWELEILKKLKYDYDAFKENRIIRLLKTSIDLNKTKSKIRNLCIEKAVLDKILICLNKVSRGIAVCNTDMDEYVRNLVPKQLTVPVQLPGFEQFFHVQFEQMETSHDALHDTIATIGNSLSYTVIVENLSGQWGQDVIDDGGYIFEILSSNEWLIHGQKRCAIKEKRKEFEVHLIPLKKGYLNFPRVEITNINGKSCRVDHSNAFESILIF

[3] = target: T3, Trs33 (TRAPP core subunit, in purified TRAPPII) (S. cerevisiae, UniProt Q99394 1-268)
T3 construct: Trs33, S. cerevisiae, endogenous; source: endogenous, purified from S. cerevisiae as a subunit of TRAPPII
T3 sequence (looked up): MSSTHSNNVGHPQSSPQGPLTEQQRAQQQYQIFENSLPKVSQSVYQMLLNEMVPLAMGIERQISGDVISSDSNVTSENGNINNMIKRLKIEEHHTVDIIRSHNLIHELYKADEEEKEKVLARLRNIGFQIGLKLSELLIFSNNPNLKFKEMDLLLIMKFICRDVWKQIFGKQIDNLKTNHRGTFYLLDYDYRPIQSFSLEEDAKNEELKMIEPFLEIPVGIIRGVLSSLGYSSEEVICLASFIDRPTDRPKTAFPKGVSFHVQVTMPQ

Measured: binding result

B1: Tca17 (TRAPPII subunit, in purified TRAPPII) (natural protein, S. cerevisiae, UniProt P32613 1-152, looked up)
chain: MSLRPCFVSLIDESDKPILIYVPNEAENEMNDVLKYNVLSNISLDYFESALVEWHSLDSKPLLKSIFQLEGVSVFAMLIKQTGLKIVIGFEQKSLSGADDEFEAINQIFETVRKIYIRVKCNPLLVSGDEKSIIKSLERKFDELFISTEVEL
notes: Tca17, S. cerevisiae, endogenous; source: endogenous, purified from S. cerevisiae as a subunit of TRAPPII
binds: all assays above
